Assay [1] concerns the target Copalyl diphosphate synthase from Penicillium fellutanum (PfCPS), full-length wild type (Penicillium fellutanum). Put plainly: SEC. For orientation: SEC sorts molecules by how far they enter the pores of the column.
The target is the same in assay [2]. Kind of assay: cryo-EM structure.

As a reminder, the stoichiometry N is a count of units in the complex or per binding partner. On to “Copalyl diphosphate synthase from Penicillium fellutanum (PfCPS), full-length wild type (enzyme)”, for which the stoichiometry N in assay [1] and in assay [2] was 6 throughout.
